Columns and labels:
[1] = target: T1, GST fused to the cytosolic domain of VAMP4 (human); test: pull-down; 5 ug GST fusion protein immobilised on glutathione Sepharose, 5 ug His-tagged Munc18c in 500 ul, overnight at 4 C; binding buffer 150 mM potassium acetate, 1 mM MgCl2, 0.05% Tween 20, 20 mM HEPES pH 7.4; bound Munc18c detected by immunoblot
T1 sequence (O75379 whole entry, looked up): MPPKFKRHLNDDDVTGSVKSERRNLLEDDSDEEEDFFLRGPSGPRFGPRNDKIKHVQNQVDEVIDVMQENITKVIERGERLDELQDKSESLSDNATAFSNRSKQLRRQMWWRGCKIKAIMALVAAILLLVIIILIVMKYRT

[2] = target: T2, GST fused to the cytosolic domain of VAMP8 (human); test: as above
T2 sequence (Q9BV40 whole entry, looked up): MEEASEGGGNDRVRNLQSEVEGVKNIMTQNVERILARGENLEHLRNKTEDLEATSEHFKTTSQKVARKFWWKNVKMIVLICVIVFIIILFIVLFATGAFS

binding as percent of that observed for VAMP2 [1]: < 14%
binding as percent of that observed for VAMP2 [2]: < 14%
B1: Munc18c, N-terminal His6-fusion protein (natural protein)
chain: MAPPVSERGLKSVVWRKIKTAVFDDCRKEGEWKIMLLDEFTTKLLSSCCKMTDLLEEGITVIENIYKNREPVRQMKALYFISPTPKSVDCFLRDFGSKSEKKYKAAYIYFTDFCPDSLFNKIKASCSKSIRRCKEINISFIPQESQVYTLDVPDAFYYCYSPDPSNASRKEVVMEAMAEQIVTVCATLDENPGVRYKSKPLDNASKLAQLVEKKLEDYYKIDEKGLIKGKTQSQLLIIDRGFDPVSTVLHELTFQAMAYDLLPIENDTYKYKTDGKEKEAVLEEDDDLWVRVRHRHIAVVLEEIPKLMKEISSTKKATEGKTSLSALTQLMKKMPHFRKQISKQVVHLNLAEDCMNKFKLNIEKLCKTEQDLALGTDAEGQRVKDSMLVLLPVLLNKNHDNCDKIRAVLLYIFGINGTTEENLDRLIHNVKIEDDSDMIRNWSHLGVPIVPPSQQAKPLRKDRSAEETFQLSRWTPFIKDIMEDAIDNRLDSKEWPYCSRCPAVWNGSGAVSARQKPRTNYLELDRKNGSRLIIFVIGGITYSEMRCAYEVSQAHKSCEVIIGSTHILTPRKLLDDIKMLNKSKDKVSFKDE

Source: article PMC2605266
